Measured values: the supplement of paper PMC11246515
± gives the standard deviation of the averaged measurements.

Assay: total protein half-life in vivo (active degradation + dilution); higher = more stable protein
[1] = E. coli NCM3722 delta-clpP delta-lon delta-hslV, growth: N-lim chemostat, doubling time 6 h
[2] = E. coli NCM3722 delta-clpP, growth: N-lim chemostat, doubling time 6 h
[3] = E. coli NCM3722 delta-lon, growth: N-lim chemostat, doubling time 6 h
[4] = E. coli NCM3722 delta-smpB, growth: N-lim chemostat, doubling time 6 h
[5] = wild type E. coli NCM3722, growth: C-lim chemostat, doubling time 3 h
[6] = wild type E. coli NCM3722, growth: C-lim chemostat, doubling time 6 h
[7] = wild type E. coli NCM3722, growth: C-lim chemostat, doubling time 12 h
[8] = wild type E. coli NCM3722, growth: N-lim chemostat, doubling time 6 h
[9] = wild type E. coli NCM3722, growth: N-lim chemostat, doubling time 12 h
[10] = wild type E. coli NCM3722, growth: P-lim chemostat, doubling time 6 h
[11] = wild type E. coli NCM3722, growth: P-lim chemostat, doubling time 12 h
[12] = E. coli NCM3722 delta-hslV, growth: N-lim chemostat, doubling time 6 h

Sequence	total protein half-life in vivo [1]	total protein half-life in vivo [2]	total protein half-life in vivo [3]	total protein half-life in vivo [4]	total protein half-life in vivo [5]	total protein half-life in vivo [6]	total protein half-life in vivo [7]	total protein half-life in vivo [8]	total protein half-life in vivo [9]	total protein half-life in vivo [10]	total protein half-life in vivo [11]	total protein half-life in vivo [12]
MTDQSHQCVIIGIAGASASGKSLIASTLYRELREQVGDEHIGVIPEDCYYKDQSHLSMEERVKTNYDHPSAMDHSLLLEHLQALKRGSAIDLPVYSYVEHTRMKETVTVEPKKVIILEGILLLTDARLRDELNFSIFVDTPLDICLMRRIKRDVNERGRSMDSVMAQYQKTVRPMFLQFIEPSKQYADIIVPRGGKNRIAIDILKAKISQFFE [P0A8F4]	5.42 ± 0.4 h	4.6 ± 0.34 h	4.87 ± 1.3 h	4.376 ± 0.027 h	2.86 ± 0.035 h	5.074 ± 0.037 h	9.37 ± 0.41 h	4.36 ± 0.07 h	6.72 ± 0.17 h	5.11 ± 0.44 h	9.61 ± 2.1 h	
MKRLQAFKFQLRPGGQQECEMRRFAGACRFVFNRALARQNENHEAGNKYIPYGKMASWLVEWKNATETQWLKDSPSQPLQQSLKDLERAYKNFFRKRAAFPRFKKRGQNDAFRYPQGVKLDQENSRIFLPKLGWMRYRNSRQVTGVVKNVTVSQSCGKWYISIQTESEVSTPVHPSASMVGLDAGVAKLATLSDGTVFEPVNSFQKNQKKLARLQRQLSRKVKFSNNWQKQKRKIQRLHSCIANIRRDYLHKVTTAVSKNHAMIVIEDLKVSNMSKSAAGTVSQPGRNVRAKSGLNRSILDQGWYEMRRQLAYKQLWRGGQVLAVPPAYTSQRCAYCGHTAKENRLSQSKFRCQVCGYTANADVNGARNILAAGHAVLACGEMVQSGRPLKQEPTEMIQATA	5.63 h		3.54 h			6.1 ± 0.35 h	10.6 h				> 16 h	
MAENQSTVENAKEKLDRWLKDGITTPGGKLPSERELGELLGIKRMTLRQALLNLEAESKIFRKDRKGWFVTQPRFNYSPELSASFQRAAIEQGREPSWGFTEKNRTSDIPETLAPLIAVTPSTELYRITGWGALEGHKVFYHETYINPEVAPGFIEQLENHSFSAVWEKCYQKETVVKKLIFKPVRMPGDISKYLGGSAGMPAILIEKHRADQQGNIVQIDIEYWRFEAVDLIINL [P0ACM9]	6.16 ± 0.15 h	5.99 ± 0.32 h		4.95 h			13.2 ± 3.2 h	5.84 ± 0.19 h	9.06 ± 1 h	5.01 ± 1.8 h	9.28 h	5.13 ± 0.17 h
MSHQLTFADSEFSSKRRQTRKEIFLSRMEQILPWQNMVEVIEPFYPKAGNGRRPYPLETMLRIHCMQHWYNLSDGAMEDALYEIASMRLFARLSLDSALPDRTTIMNFRHLLEQHQLARQLFKTINRWLAEAGVMMTQGTLVDATIIEAPSSTKNKEQQRDPEMHQTKKGNQWHFGMKAHIGVDAKSGLTHSLVTTAANEHDLNQLGNLLHGEEQFVSADAGYQGAPQREELAEVDVDWLIAERPGKVRTLKQHPRKNKTAINIEYMKASIRARVEHPFRIIKRQFGFVKARYKGLLKNDNQLAMLFTLANLFRADQMIRQWERSH [P0CE51]	3.8 ± 0.34 h			0.495 h	> 4 h	0.676 h	3.18 h	0.532 h		0.426 h	0.648 h	
MNNPAMTIKGEQAKKQLIAAALAQFGEYGMNATTREIAAQAGQNIAAITYYFGSKEDLYLACAQWIADFIGEQFRPHAEEAERLFAQPQPDRAAIRELILRACRNMIKLLTQDDTVNLSKFISREQLSPTAAYHLVHEQVISPLHSHLTRLIAAWTGCDANDTRMILHTHALIGEILAFRLGKETILLRTGWTAFDEEKTELINQTVTCHIDLILQGLSQRSL [P0ACU0]	5.84 ± 0.3 h	5.34 ± 0.68 h		4.47 ± 0.15 h	2.49 ± 0.42 h	5.25 ± 0.066 h		4.76 ± 0.33 h	7.67 ± 0.31 h	4.47 ± 0.36 h	10.4 ± 0.78 h	4.74 ± 0.24 h
MQKLINSVQNYAWGSKTALTELYGMENPSSQPMAELWMGAHPKSSSRVQNAAGDIVSLRDVIESDKSTLLGEAVAKRFGELPFLFKVLCAAQPLSIQVHPNKHNSEIGFAKENAAGIPMDAAERNYKDPNHKPELVFALTPFLAMNAFREFSEIVSLLQPVAGAHPAIAHFLQQPDAERLSELFASLLNMQGEEKSRALAILKSALDSQQGEPWQTIRLISEFYPEDSGLFSPLLLNVVKLNPGEAMFLFAETPHAYLQGVALEVMANSDNVLRAGLTPKYIDIPELVANVKFEAKPANQLLTQPVKQGAELDFPIPVDDFAFSLHDLSDKETTISQQSAAILFCVEGDATLWKGSQQLQLKPGESAFIAANESPVTVKGHGRLARVYNKL	4.5 ± 0.45 h	4.28 ± 0.05 h	4.64 ± 0.25 h	4.506 ± 0.036 h	3.03 ± 0.032 h	5.48 ± 0.18 h	10.7 ± 0.47 h	4.46 ± 0.15 h	7.24 ± 0.34 h	5.71 ± 0.53 h	10.9 ± 0.41 h	5.01 ± 0.19 h
MKQATRKPTTPGDILLYEYLEPLDLKINELAELLHVHRNSVSALINNNRKLTTEMAFRLAKVFDTTVDFWLNLQAAVDLWEVENNMRTQEELGRIETVAEYLARREERAKKVA [P0A9T6]	5.02 ± 0.066 h	3.95 ± 0.23 h	0.94 h	0.895 ± 0.037 h	0.871 ± 0.018 h	0.977 ± 0.032 h	1.53 h	1.08 h	1.08 h	0.994 ± 0.08 h	1.7 ± 0.7 h	0.853 h
MGKTQPLPILITGGGRRIGLALAWHFINQKQPVIVSYRTHYPAIDGLINAGAQCIQADFSTNDGVMAFADEVLKSTHGLRAILHNASAWMAEKPGAPLADVLACMMQIHVNTPYLLNHALERLLRGHGHAASDIIHFTDYVVERGSDKHIAYAASKAALDNMTRSFARKLAPEVKVNSIAPSLILFNEHDDAEYRQQALNKSLMKTAPGEKEVIDLVDYLLTSCFVTGRSFPLDGGRHLR [P0AFS3]	5.23 ± 0.36 h	5.33 ± 1.2 h	5.6 ± 0.53 h	4.85 ± 0.43 h	3.124 ± 0.021 h	5.67 ± 0.13 h	11.5 ± 1 h	5.32 ± 0.17 h	9.17 ± 0.28 h	5.56 ± 0.12 h	12.3 ± 0.39 h	5.31 ± 0.45 h
